Consider four molecules from US20160355588A1 (Zymeworks, published 2016).

What all share (test): cell-based or functional assay
Experiment [1] addresses T1, CD19 on Raji B cells (human, UniProt P15391 20-556).
T1 sequence (looked up): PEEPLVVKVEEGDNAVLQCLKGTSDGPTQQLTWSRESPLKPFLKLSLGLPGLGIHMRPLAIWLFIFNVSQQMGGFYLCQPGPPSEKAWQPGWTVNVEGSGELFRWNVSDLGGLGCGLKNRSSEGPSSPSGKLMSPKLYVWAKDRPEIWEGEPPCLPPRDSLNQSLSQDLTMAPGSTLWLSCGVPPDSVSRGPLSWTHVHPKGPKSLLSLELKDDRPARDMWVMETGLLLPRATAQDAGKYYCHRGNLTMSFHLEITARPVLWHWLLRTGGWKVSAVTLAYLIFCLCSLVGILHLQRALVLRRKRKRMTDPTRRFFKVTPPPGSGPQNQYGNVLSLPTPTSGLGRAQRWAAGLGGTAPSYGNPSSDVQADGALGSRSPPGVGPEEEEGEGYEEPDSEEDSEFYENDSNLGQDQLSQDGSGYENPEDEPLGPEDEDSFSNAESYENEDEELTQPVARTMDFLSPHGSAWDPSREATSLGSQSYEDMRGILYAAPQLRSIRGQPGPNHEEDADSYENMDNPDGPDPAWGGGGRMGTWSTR

Experiment [2] concerns the target T2, CD20 on Raji B cells (human, UniProt P11836 1-297).
T2 sequence (looked up): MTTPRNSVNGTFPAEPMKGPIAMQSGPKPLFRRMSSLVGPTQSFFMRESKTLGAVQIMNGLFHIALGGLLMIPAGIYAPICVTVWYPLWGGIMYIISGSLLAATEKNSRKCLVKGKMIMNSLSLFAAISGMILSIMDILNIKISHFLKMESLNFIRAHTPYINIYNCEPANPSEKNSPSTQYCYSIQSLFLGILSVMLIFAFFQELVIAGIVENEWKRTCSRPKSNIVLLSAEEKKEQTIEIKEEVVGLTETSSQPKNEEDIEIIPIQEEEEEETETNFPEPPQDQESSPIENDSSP

Experiment [3] concerns the target T2, CD20 on Raji B cells. The source holds these as a separate data set.
Experiment [4] concerns the target T1, CD19 on Raji B cells. This is another data set of the same source.

Where two headings read alike, the source gives them in different places.

B1: v5852 (bispecific antibody, human IgG1, kappa, L234A L235A)
heavy: QVQLVQSGGGVVQPGRSLRLSCKASGYTFTRYTMHWVRQAPGKGLEWIGYINPSRGYTNYNQKVKDRFTISRDNSKNTAFLQMDSLRPEDTGVYFCARYYDDHYCLDYWGQGTPVTVSSASTKGPSVFPLAPSSKSTSGGTAALGCLVKDYFPEPVTVSWNSGALTSGVHTFPAVLQSSGLYSLSSVVTVPSSSLGTQTYICNVNHKPSNTKVDKKVEPKSCDKTHTCPPCPAPELLGGPSVFLFPPKPKDTLMISRTPEVTCVVVDVSHEDPEVKFNWYVDGVEVHNAKTKPREEQYNSTYRVVSVLTVLHQDWLNGKEYKCKVSNKALPAPIEKTISKAKGQPREPQVYVYPPSRDELTKNQVSLTCLVKGFYPSDIAVEWESNGQPENNYKTTPPVLDSDGSFALVSKLTVDKSRWQQGNVFSCSVMHEALHNHYTQKSLSLSPGK
chain: EVQLVESGGGLVKPGGSLKLSCAASGYTFTSYVMHWVRQAPGKGLEWIGYINPYNDGTKYNEKFQGRVTISSDKSISTAYMELSSLRSEDTAMYYCARGTYYYGTRVFDYWGQGTLVTVSSGGGGSGGGGSGGGGSDIVMTQSPATLSLSPGERATLSCRSSKSLQNVNGNTYLYWFQQKPGQSPQLLIYRMSNLNSGVPDRFSGSGSGTEFTLTISSLEPEDFAVYYCMQHLEYPITFGAGTKLEIKAAEPKSSDKTHTCPPCPAPEAAGGPSVFLFPPKPKDTLMISRTPEVTCVVVSVSHEDPEVKFNWYVDGVEVHNAKTKPREEQYNSTYRVVSVLTVLHQDWLNGKEYKCKVSNKALPAPIEKTISKAKGQPREPQVYVLPPSRDELTKNQVSLLCLVKGFYPSDIAVEWESNGQPENNYLTWPPVLDSDGSFFLYSKLTVDKSRWQQGNVFSCSVMHEALHNHYTQKSLSLSPGK
light: DIQMTQSPSSLSASVGDRVTITCSASSSVSYMNWYQQTPGKAPKRWIYDTSKLASGVPSRFSGSGSGTDYTFTISSLQPEDIATYYCQQWSSNPFTFGQGTKLQITRTVAAPSVFIFPPSDEQLKSGTASVVCLLNNFYPREAKVQWKVDNALQSGNSQESVTEQDSKDSTYSLSSTLTLSKADYEKHKVYACEVTHQGLSSPVTKSFNRGEC
Turning to B1, the “% Bridging Jurkat/Raji (whole cell FACS T:B bridging; CD3 on Jurkat bridged to the B cell antigen on Raji)” value (from here on “% Bridging Jurkat/Raji”) with CD19 on Raji B cells [1] worked out at 30.4%.

B2: v6325 (bispecific antibody, human IgG1, kappa)
heavy: B1 heavy
chain: not shown
light: B1 light
As for B2, the “% Bridging Jurkat/Raji” value with CD20 on Raji B cells [2] stood at 15.7%.

B3: v1821 (bispecific antibody, human IgG1, kappa)
heavy 1: QVQLVQSGGGVVQPGRSLRLSCKASGYTFTSYTMHWVRQAPGKGLEWIGYINPSSGYTKYNQKFKDRFTISADKSKSTAFLQMDSLRPEDTGVYFCARWQDYDVYFDYWGQGTPVTVSSASTKGPSVFPLAPSSKSTSGGTAALGCLVKDYFPEPVTVSWNSGALTSGVHTFPAVLQSSGLYSLSSVVTVPSSSLGTQTYICNVNHKPSNTKVDKKVEPKSCDKTHTCPPCPAPELLGGPSVFLFPPKPKDTLMISRTPEVTCVVVDVSHEDPEVKFNWYVDGVEVHNAKTKPREEQYNSTYRVVSVLTVLHQDWLNGKEYKCKVSNKALPAPIEKTISKAKGQPREPQVYVYPPSRDELTKNQVSLTCLVKGFYPSDIAVEWESNGQPENNYKTTPPVLDSDGSFALVSKLTVDKSRWQQGNVFSCSVMHEALHNHYTQKSLSLSPGK
heavy 2: not shown
light: QIVLSQSPAILSASPGEKVTMTCRASSSVSYIHWFQQKPGSSPKPWIYATSNLASGVPVRFSGSGSGTSYSLTISRVEAEDAATYYCQQWTSNPPTFGGGTKLEIKRTVAAPSVFIFPPSDEQLKSGTASVVCLLNNFYPREAKVQWKVDNALQSGNSQESVTEQDSKDSTYSLSSTLTLSKADYEKHKVYACEVTHQGLSSPVTKSFNRGEC
In the case of B3, the “% Bridging Jurkat/Raji” value with CD20 on Raji B cells [3] was 7.3%.

B4: v5851 (bispecific antibody)
chain: not shown
heavy: not shown
light: DIVMTQSPATLSLSPGERATLSCRSSKSLQNVNGNTYLYWFQQKPGQSPQLLIYRMSNLNSGVPDRFSGSGSGTEFTLTISSLEPEDFAVYYCMQHLEYPITFGAGTKLEIKRTVAAPSVFIFPPSDEQLKSGTASVVCLLNNFYPREAKVQWKVDNALQSGNSQESVTEQDSKDSTYSLSSTLTLSKADYEKHKVYACEVTHQGLSSPVTKSFNRGEC
With B4, in the experiment with CD19 on Raji B cells [4], the “% Bridging Jurkat/Raji” value turned out to be 23.2%.
